Data published in patent US12679878B2, “CRF2 receptor agonists and their use in therapy” (SANOFI, priority 2020, dated 2026).
Starred links: 1 amine or outer side, 2 acyl side, 3 side chain; linkers in the order of their positions; H or OH if unused. Non-standard residues stand in square brackets, D forms with d. Groups on a side chain read outwards from the residue. No end group written: not given here. *: point of attachment. C18 diacid = O=C(O)CCCCCCCCCCCCCCCCC(=O)*; γGlu = O=C(O)[C@H](CCC(=O)[*:2])N[*:1]; Palmitoyl = CCCCCCCCCCCCCCCC(=O)*; AEEA = NCCOCCOCC(=O)O; Aib = CC(C)(N)C(=O)O

B1: SEQ ID NO: 150 (peptide)
peptide: IVLSLD[dV]PIGLK([AEEA-AEEA-γGlu-C18 diacid])QILLKQERQKK[Aib]RQQAETNKRILERV-NH2
modifications: N-terminus assumed
SMILES: CC[C@H](C)[C@H](N)C(=O)N[C@H](C(=O)N[C@@H](CC(C)C)C(=O)N[C@@H](CO)C(=O)N[C@@H](CC(C)C)C(=O)N[C@@H](CC(=O)O)C(=O)N[C@@H](C(=O)N1CCC[C@H]1C(=O)N[C@H](C(=O)NCC(=O)N[C@@H](CC(C)C)C(=O)N[C@@H](CCCCNC(=O)COCCOCCNC(=O)COCCOCCNC(=O)CC[C@H](NC(=O)CCCCCCCCCCCCCCCCC(=O)O)C(=O)O)C(=O)N[C@@H](CCC(N)=O)C(=O)N[C@H](C(=O)N[C@@H](CC(C)C)C(=O)N[C@@H](CC(C)C)C(=O)N[C@@H](CCCCN)C(=O)N[C@@H](CCC(N)=O)C(=O)N[C@@H](CCC(=O)O)C(=O)N[C@@H](CCCNC(=N)N)C(=O)N[C@@H](CCC(N)=O)C(=O)N[C@@H](CCCCN)C(=O)N[C@@H](CCCCN)C(=O)NC(C)(C)C(=O)N[C@@H](CCCNC(=N)N)C(=O)N[C@@H](CCC(N)=O)C(=O)N[C@@H](CCC(N)=O)C(=O)N[C@@H](C)C(=O)N[C@@H](CCC(=O)O)C(=O)N[C@H](C(=O)N[C@@H](CC(N)=O)C(=O)N[C@@H](CCCCN)C(=O)N[C@@H](CCCNC(=N)N)C(=O)N[C@H](C(=O)N[C@@H](CC(C)C)C(=O)N[C@@H](CCC(=O)O)C(=O)N[C@@H](CCCNC(=N)N)C(=O)N[C@H](C(N)=O)C(C)C)[C@@H](C)CC)[C@@H](C)O)[C@@H](C)CC)[C@@H](C)CC)C(C)C)C(C)C
B2: SEQ ID NO: 151 (peptide)
peptide: IVLSLD[dV]PIGLK([AEEA-AEEA-γGlu-C18 diacid])QILLKQERQKK[Aib]REQAEKNKRILERV-NH2
modifications: N-terminus assumed
SMILES: CC[C@H](C)[C@H](N)C(=O)N[C@H](C(=O)N[C@@H](CC(C)C)C(=O)N[C@@H](CO)C(=O)N[C@@H](CC(C)C)C(=O)N[C@@H](CC(=O)O)C(=O)N[C@@H](C(=O)N1CCC[C@H]1C(=O)N[C@H](C(=O)NCC(=O)N[C@@H](CC(C)C)C(=O)N[C@@H](CCCCNC(=O)COCCOCCNC(=O)COCCOCCNC(=O)CC[C@H](NC(=O)CCCCCCCCCCCCCCCCC(=O)O)C(=O)O)C(=O)N[C@@H](CCC(N)=O)C(=O)N[C@H](C(=O)N[C@@H](CC(C)C)C(=O)N[C@@H](CC(C)C)C(=O)N[C@@H](CCCCN)C(=O)N[C@@H](CCC(N)=O)C(=O)N[C@@H](CCC(=O)O)C(=O)N[C@@H](CCCNC(=N)N)C(=O)N[C@@H](CCC(N)=O)C(=O)N[C@@H](CCCCN)C(=O)N[C@@H](CCCCN)C(=O)NC(C)(C)C(=O)N[C@@H](CCCNC(=N)N)C(=O)N[C@@H](CCC(=O)O)C(=O)N[C@@H](CCC(N)=O)C(=O)N[C@@H](C)C(=O)N[C@@H](CCC(=O)O)C(=O)N[C@@H](CCCCN)C(=O)N[C@@H](CC(N)=O)C(=O)N[C@@H](CCCCN)C(=O)N[C@@H](CCCNC(=N)N)C(=O)N[C@H](C(=O)N[C@@H](CC(C)C)C(=O)N[C@@H](CCC(=O)O)C(=O)N[C@@H](CCCNC(=N)N)C(=O)N[C@H](C(N)=O)C(C)C)[C@@H](C)CC)[C@@H](C)CC)[C@@H](C)CC)C(C)C)C(C)C
B3: SEQ ID NO: 152 (peptide)
peptide: IVLSLDVPIKLK([AEEA-AEEA-γGlu-C18 diacid])QILLKQERQKK[Aib]REQAETNKRILERV-NH2
modifications: N-terminus assumed
SMILES: CC[C@H](C)[C@H](N)C(=O)N[C@H](C(=O)N[C@@H](CC(C)C)C(=O)N[C@@H](CO)C(=O)N[C@@H](CC(C)C)C(=O)N[C@@H](CC(=O)O)C(=O)N[C@H](C(=O)N1CCC[C@H]1C(=O)N[C@H](C(=O)N[C@@H](CCCCN)C(=O)N[C@@H](CC(C)C)C(=O)N[C@@H](CCCCNC(=O)COCCOCCNC(=O)COCCOCCNC(=O)CC[C@H](NC(=O)CCCCCCCCCCCCCCCCC(=O)O)C(=O)O)C(=O)N[C@@H](CCC(N)=O)C(=O)N[C@H](C(=O)N[C@@H](CC(C)C)C(=O)N[C@@H](CC(C)C)C(=O)N[C@@H](CCCCN)C(=O)N[C@@H](CCC(N)=O)C(=O)N[C@@H](CCC(=O)O)C(=O)N[C@@H](CCCNC(=N)N)C(=O)N[C@@H](CCC(N)=O)C(=O)N[C@@H](CCCCN)C(=O)N[C@@H](CCCCN)C(=O)NC(C)(C)C(=O)N[C@@H](CCCNC(=N)N)C(=O)N[C@@H](CCC(=O)O)C(=O)N[C@@H](CCC(N)=O)C(=O)N[C@@H](C)C(=O)N[C@@H](CCC(=O)O)C(=O)N[C@H](C(=O)N[C@@H](CC(N)=O)C(=O)N[C@@H](CCCCN)C(=O)N[C@@H](CCCNC(=N)N)C(=O)N[C@H](C(=O)N[C@@H](CC(C)C)C(=O)N[C@@H](CCC(=O)O)C(=O)N[C@@H](CCCNC(=N)N)C(=O)N[C@H](C(N)=O)C(C)C)[C@@H](C)CC)[C@@H](C)O)[C@@H](C)CC)[C@@H](C)CC)C(C)C)C(C)C
B4: SEQ ID NO: 153 (peptide)
peptide: Ac-IVLSLDVPIGLK([AEEA-AEEA-γGlu-C18 diacid])QILLEQEKQEKEKQQAETNAQILAQV-NH2
SMILES: CC[C@H](C)[C@H](NC(C)=O)C(=O)N[C@H](C(=O)N[C@@H](CC(C)C)C(=O)N[C@@H](CO)C(=O)N[C@@H](CC(C)C)C(=O)N[C@@H](CC(=O)O)C(=O)N[C@H](C(=O)N1CCC[C@H]1C(=O)N[C@H](C(=O)NCC(=O)N[C@@H](CC(C)C)C(=O)N[C@@H](CCCCNC(=O)COCCOCCNC(=O)COCCOCCNC(=O)CC[C@H](NC(=O)CCCCCCCCCCCCCCCCC(=O)O)C(=O)O)C(=O)N[C@@H](CCC(N)=O)C(=O)N[C@H](C(=O)N[C@@H](CC(C)C)C(=O)N[C@@H](CC(C)C)C(=O)N[C@@H](CCC(=O)O)C(=O)N[C@@H](CCC(N)=O)C(=O)N[C@@H](CCC(=O)O)C(=O)N[C@@H](CCCCN)C(=O)N[C@@H](CCC(N)=O)C(=O)N[C@@H](CCC(=O)O)C(=O)N[C@@H](CCCCN)C(=O)N[C@@H](CCC(=O)O)C(=O)N[C@@H](CCCCN)C(=O)N[C@@H](CCC(N)=O)C(=O)N[C@@H](CCC(N)=O)C(=O)N[C@@H](C)C(=O)N[C@@H](CCC(=O)O)C(=O)N[C@H](C(=O)N[C@@H](CC(N)=O)C(=O)N[C@@H](C)C(=O)N[C@@H](CCC(N)=O)C(=O)N[C@H](C(=O)N[C@@H](CC(C)C)C(=O)N[C@@H](C)C(=O)N[C@@H](CCC(N)=O)C(=O)N[C@H](C(N)=O)C(C)C)[C@@H](C)CC)[C@@H](C)O)[C@@H](C)CC)[C@@H](C)CC)C(C)C)C(C)C
B5: SEQ ID NO: 154 (peptide)
peptide: IVLSLDVPIGLK([AEEA-AEEA-γGlu-C18 diacid])QILLEQEKQEKEKQQAETNKRILERV-NH2
modifications: N-terminus assumed
SMILES: CC[C@H](C)[C@H](N)C(=O)N[C@H](C(=O)N[C@@H](CC(C)C)C(=O)N[C@@H](CO)C(=O)N[C@@H](CC(C)C)C(=O)N[C@@H](CC(=O)O)C(=O)N[C@H](C(=O)N1CCC[C@H]1C(=O)N[C@H](C(=O)NCC(=O)N[C@@H](CC(C)C)C(=O)N[C@@H](CCCCNC(=O)COCCOCCNC(=O)COCCOCCNC(=O)CC[C@H](NC(=O)CCCCCCCCCCCCCCCCC(=O)O)C(=O)O)C(=O)N[C@@H](CCC(N)=O)C(=O)N[C@H](C(=O)N[C@@H](CC(C)C)C(=O)N[C@@H](CC(C)C)C(=O)N[C@@H](CCC(=O)O)C(=O)N[C@@H](CCC(N)=O)C(=O)N[C@@H](CCC(=O)O)C(=O)N[C@@H](CCCCN)C(=O)N[C@@H](CCC(N)=O)C(=O)N[C@@H](CCC(=O)O)C(=O)N[C@@H](CCCCN)C(=O)N[C@@H](CCC(=O)O)C(=O)N[C@@H](CCCCN)C(=O)N[C@@H](CCC(N)=O)C(=O)N[C@@H](CCC(N)=O)C(=O)N[C@@H](C)C(=O)N[C@@H](CCC(=O)O)C(=O)N[C@H](C(=O)N[C@@H](CC(N)=O)C(=O)N[C@@H](CCCCN)C(=O)N[C@@H](CCCNC(=N)N)C(=O)N[C@H](C(=O)N[C@@H](CC(C)C)C(=O)N[C@@H](CCC(=O)O)C(=O)N[C@@H](CCCNC(=N)N)C(=O)N[C@H](C(N)=O)C(C)C)[C@@H](C)CC)[C@@H](C)O)[C@@H](C)CC)[C@@H](C)CC)C(C)C)C(C)C
B6: SEQ ID NO: 17 (peptide)
peptide: IVLSLDVPIKLK([γGlu-Palmitoyl])KILLEQEKQKKQREQAETNKQILAQV-NH2
modifications: N-terminus assumed
SMILES: CCCCCCCCCCCCCCCC(=O)N[C@@H](CCC(=O)NCCCC[C@H](NC(=O)[C@H](CC(C)C)NC(=O)[C@H](CCCCN)NC(=O)[C@@H](NC(=O)[C@@H]1CCCN1C(=O)[C@@H](NC(=O)[C@H](CC(=O)O)NC(=O)[C@H](CC(C)C)NC(=O)[C@H](CO)NC(=O)[C@H](CC(C)C)NC(=O)[C@@H](NC(=O)[C@@H](N)[C@@H](C)CC)C(C)C)C(C)C)[C@@H](C)CC)C(=O)N[C@@H](CCCCN)C(=O)N[C@H](C(=O)N[C@@H](CC(C)C)C(=O)N[C@@H](CC(C)C)C(=O)N[C@@H](CCC(=O)O)C(=O)N[C@@H](CCC(N)=O)C(=O)N[C@@H](CCC(=O)O)C(=O)N[C@@H](CCCCN)C(=O)N[C@@H](CCC(N)=O)C(=O)N[C@@H](CCCCN)C(=O)N[C@@H](CCCCN)C(=O)N[C@@H](CCC(N)=O)C(=O)N[C@@H](CCCNC(=N)N)C(=O)N[C@@H](CCC(=O)O)C(=O)N[C@@H](CCC(N)=O)C(=O)N[C@@H](C)C(=O)N[C@@H](CCC(=O)O)C(=O)N[C@H](C(=O)N[C@@H](CC(N)=O)C(=O)N[C@@H](CCCCN)C(=O)N[C@@H](CCC(N)=O)C(=O)N[C@H](C(=O)N[C@@H](CC(C)C)C(=O)N[C@@H](C)C(=O)N[C@@H](CCC(N)=O)C(=O)N[C@H](C(N)=O)C(C)C)[C@@H](C)CC)[C@@H](C)O)[C@@H](C)CC)C(=O)O

Biological target: human corticotropin-releasing factor 2α (CRF2 α receptor) (human), Q13324
Sequence (Q13324 20-411): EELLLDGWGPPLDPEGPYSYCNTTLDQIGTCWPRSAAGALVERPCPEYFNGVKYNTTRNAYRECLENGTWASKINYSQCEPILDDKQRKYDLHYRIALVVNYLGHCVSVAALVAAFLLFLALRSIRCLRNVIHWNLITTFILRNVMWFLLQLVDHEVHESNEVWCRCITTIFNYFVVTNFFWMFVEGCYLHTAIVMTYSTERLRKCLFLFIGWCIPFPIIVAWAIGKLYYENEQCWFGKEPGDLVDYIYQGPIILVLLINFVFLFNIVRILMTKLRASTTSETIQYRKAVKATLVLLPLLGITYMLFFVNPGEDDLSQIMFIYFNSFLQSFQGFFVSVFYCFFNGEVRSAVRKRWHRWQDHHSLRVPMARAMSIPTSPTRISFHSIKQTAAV
Experiment: cell-based or functional assay

**Q.** With B1 as the binder, how does the EC50 [nM], 0% HSA read?
**A.** The EC50 [nM], 0% HSA was 0.07 nM.

**Q.** What about the EC50 [nM], 0.1% HSA of the same binder?
**A.** Its EC50 [nM], 0.1% HSA is 3.99 nM.

**Q.** B2 was tested. Which EC50 [nM], 0% HSA did it give?
**A.** The EC50 [nM], 0% HSA was 0.08 nM.

**Q.** What about the EC50 [nM], 0.1% HSA of the same binder?
**A.** The EC50 [nM], 0.1% HSA was 3.87 nM.

**Q.** Which results are given for B3?
**A.** EC50 [nM], 0% HSA: 0.09 nM; EC50 [nM], 0.1% HSA: 4.94 nM

**Q.** Which EC50 [nM], 0% HSA does the source give for B4 here?
**A.** Its EC50 [nM], 0% HSA is 33.7 nM.

**Q.** How did the EC50 [nM], 0% HSA turn out when B5 was run?
**A.** The EC50 [nM], 0% HSA was 15 nM.

**Q.** And the EC50 [nM], 0.1% HSA?
**A.** Its EC50 [nM], 0.1% HSA is 15.3 nM.

**Q.** With B6 as the binder, how does the EC50 [nM], 0% HSA read?
**A.** The EC50 [nM], 0% HSA was 0.02 nM.
